Assay results published in patent US20180223285A1.

Target: human C5a receptor (human) (UniProt P21730)
Assay: cell-based or functional assay

Chain of human C5a receptor (human) (P21730 whole entry): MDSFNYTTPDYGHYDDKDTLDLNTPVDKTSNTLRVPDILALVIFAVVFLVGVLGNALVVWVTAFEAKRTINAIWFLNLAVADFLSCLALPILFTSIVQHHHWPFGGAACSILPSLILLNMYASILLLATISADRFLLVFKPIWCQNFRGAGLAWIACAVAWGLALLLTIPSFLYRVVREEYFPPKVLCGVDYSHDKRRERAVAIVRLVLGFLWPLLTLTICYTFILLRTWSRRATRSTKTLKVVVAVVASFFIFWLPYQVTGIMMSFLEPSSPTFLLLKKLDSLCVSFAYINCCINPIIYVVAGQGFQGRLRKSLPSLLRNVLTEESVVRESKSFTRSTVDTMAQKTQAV

| Substance | half effective concentration (EC50) of chemotaxis of BA/F3/huC5aR cells [nM] |
| --- | --- |
| mouse C5a (from UniProt P06684 679-755) (ligand) | 0.3 |
| recombinant human C5a (from UniProt P01031 678-751) (ligand) | 0.1 |
